Assay results taken from patent US7329737 (DYAX, dated 2008).

These binders were tested against T1, hK1 (human tissue kallikrein 1), recombinant (human, UniProt P06870 25-262) (assay: SPR).
T1 construct: Expressed in P. pastoris from KLK1 cDNA and purified; enzymatically active; also called KLK1; Recombinant (Pichia) Kallikrein

Row | Kd [nM] | koff [s⁻¹] | kon [M⁻¹ s⁻¹] | Binder
1 | 13.3 | 0.00435 | 327000 | M0102-A04 (Fab, V domains shown) VH: EVQLLESGGGLVQPGGSLRLSCAASGFTFSHYVMNWVRQAPGKGLEWVSRIYPSGGVTVYADSVKGRFTISRDNSKNTLYLQMNSLRAEDTAVYYCARGYGMDVWGQGTMVTVSS VL: AQSELTQPPSASGTPGQRVTISCSGSSSNIGSNYVYWYQQYPGTVPKLLIHSNNQRPSGVPDRFSGPKSGTSASLAISGLRSEDEADYYCATWDNSLSAWVFGGGTKLTVLR
2 | 15.3 | 0.00439 | 287000 | M0127-H05 (Fab, V domains shown) VH: EVQLLESGGGLVQPGGSLRLSCAASGFTFSHYLMGWVRQAPGKGLEWVSSIWPSGGHTSYADSVKGRFTISRDNSKNTLYLQMNSLRAEDTAVYYCARHYGMDVWGQGTTVTVSS VL: DIQMTQSPSSLSASVGDRVTITCRASQSISSYLNWYQQKPGKVPKLLIYAASSLQSGVPSRFSGSGSGTDFTLTISSLQPDDFATYYCQQTFSTWTFGQGTKVEIRR
3 | 14.4 | 0.000921 | 63900 | M0127-D05 (Fab, V domains shown) VH: EVQLLESGGGLVQPGGSLRLSCAASGFTFSHYYMMWVRQAPGKGLEWVSSIGPSGGMTDYADSVKGRFTISRDNSKNTLYLQMNSLRAEDTAVYYCATGGTASLDYWGQGTLVTVSS VL: not shown
4 | 16.5 | 0.00918 | 556000 | M0095-H10 (Fab, V domains shown) VH: EVQLLESGGGLVQPGGSLRLSCAASGFTFSNYKMQWVRQAPGKGLEWVSSIYSSGGKTVYADSVKGRFTISRDNSKNTLYLQMNSLRAEDTAVYYCARTPGYNYFDYWGQGTLVTVSS VL: DIQMTQSPSTLSASVGDRVTITCRASQSISSWLAWYQQKPGKAPKLLIYTASSLESGVPSRFSAGGSGTEFTLTISSLQPDDFGTYYCQQYNSYSLTFGGGTKVEIKR
5 | 15.3 | 0.003 | 195000 | M0107-D05 (Fab, V domains shown) VH: EVQLLESGGGLVQPGGSLRLSCAASGFTFSNYHMQWVRQAPGKGLEWVSSIYPSGGFTRYADSVKGRFTISRDNSKNTLYLQMNSLRAEDTAVYYCARDGGQGGWGQGTLVTVSS VL: DIQMTQSPSTLSASVGDRVTITCRASQSISSWLAWYQQKPGKVPKLLIHAASTLQSGVPSRFSGSGSGTDFTLTISSLQPEDVATYYCQKYNSAPLTFGGGTKVEIKR
6 | 17.2 | 0.0064 | 372000 | M0124-G12 (Fab, V domains shown) VH: EVQLLESGGGLVQPGGSLRLSCAASGFTFSHYWMRWVRQAPGKGLEWVSSIGSSGGMTKYADSVKGRFTISRDNSKNTLYLQMNSLRAEDTAVYYCARALRWRAFDIWGQGTMVTVSS VL: DIQMTQSPSSVSASVGDRVTITCRASQGISSWLAWYQQKPGKAPKLLIYAASSLQSGVPSRFSGSGSGTDFTLTISSLQPEDFATYYCQQANSFPLTFGGGTKVEIKR
7 | 13.2 | 0.00743 | 564000 | M0103-F07 (Fab, V domains shown) VH: EVQLLESGGGLVQPGGSLRLSCAASGFTFSLYAMHWVRQAPGKGLEWVSSIRPSGGLTKYADSVKGRFTISRDNSKNTLYLQMNSLRAEDTAVYYCARVGVWYGMDVWGQGTTVTVSS VL: AQSALTQPASVSGSPGQSITISCTGTSNDIGRTNYVSWYRQDPGRAPKLILFEVSNRPSGISNRFSASKSGSTASLTISGLQADDESDYYCSSCTTAPVCVFGNGTRVTVLG
8 | 16 | 0.00465 | 290000 | M0112-C12 (Fab, V domains shown) VH: EVQLLESGGGLVQPGGSLRLSCAASGFTFSRYMMYWVRQAPGKGLEWVSSIYPSGGKTLYADSVKGRFTISRDNSKNTLYLQMNSLRAEDTAVYYCARVGVWYGMDVWGQGTTVTVSS VL: DIQMTQSPGTLSLSPGERATLSCRASQSVSSSYLAWYQQKPGQAPRLLIYGASSRATGIPDRFSGSGSGTEFTLTISSLQSEDSAVYYCQQYNNWPPLTFGGGTKVEIKR
9 | 13.2 | 0.00796 | 605000 | M0099-E11 (Fab, V domains shown) VH: EVQLLESGGGLVQPGGSLRLSCAASGFTFSHYTMVWVRQAPGKGLEWVSSIYSSGGRTNYADSVKGRFTISRDNSKNTLYLQMNSLRAEDTAVYYCARIVVVPSAQFYFYYGMDVWGQGTTVTVSS VL: DIQMTQSPSTLSASVGDRVTITCRASQSISNWLAWYQQKPGRAPKLLIYKASTLESGVPSRFSGSGSGTEFTLTISSLQPDDFATYYCQHYNSYSLFGQGTKLEIKR
10 | 14.4 | 0.00648 | 451000 | M0126-C10 (Fab, V domains shown) VH: EVQLLESGGGLVQPGGSLRLSCAASGFTFSHYKMHWVRQAPGKGLEWVSSIWPSGGGTFYADSVKGRFTISRDNSKNTLYLQMNSLRAEDTAMYYCARTSGGFGAFDIWGQGTMVTVSS VL: DIQMTQSPSSLSASVGDRVTITCRAGQTINNYLNWYQQKPGKAPNLLIYAASNLQSGVPSRFSGSKSGTDFTLTISSLQPEDFATYHCQQTYRTPFTFGGGTRVEIKG
11 | 16.7 | 0.00644 | – | M0094-F03 (Fab, V domains shown) VH: EVQLLESGGGLVQPGGSLRLSCAASGFTFSWYQMSWVRQAPGKGLEWVSSIYPSGGATKYADSVKGRFTISRDNSKNTLYLQMNSLRAEDTAMYYCARMGLHHSFDYWGQGTLVTVSS VL: DIQMTQSPGTLSLSLGETATLSCRASQTVGGSYLAWYRQKPGQAPSLLIYAASNRAPGIPDRFSGSGSGTDFTLTISSLQSEDFAVYYCQQYGSSMYTFGQGTILEIKR
12 | 17.5 | 0.00578 | 331000 | M0099-D05 (Fab, V domains shown) VH: EVQLLESGGGLVQPGGSLRLSCAASGFTFSNYIMSWVRQAPGKGLEWVSSIWPSGGHTRYADSVKGRFTISRDNSKNTLYLQMNSLRAEDTAVYYCARAGSYYAGDYWGQGTLVTVSS VL: DIQMTQSPGTLSLSPGERATLSCRASQTVSSNYLAWYQQKPGLAPRLLIYGVSNRAAGIPDRFSGRGSGTDFTLIINRLEPEDFAVYYCQHYGSSAFTFGRGTKLEIER

Second part, the binder before the results:

Row | Binder | Kd [nM] | koff [s⁻¹] | kon [M⁻¹ s⁻¹]
13 | M0122-G06 (Fab, V domains shown) VH: EVQLLESGGGLVQPGGSLRLSCAASGFTFSWYAMHWVRQAPGKGLEWVSVISPSGGATRYADSVKGRFTISRDNSKNTLYLQMNSLRAEDTAVYYCVRASTVTTLFQHWGQGTLVTVSS VL: AQSALTQPASVSGSPGQSITISCTGTSSDVGGYNYVSWYQQHPGKAPKLMIYDVSKRPSGVSNRFSGSKSGNTASLTISGLQAEDEADYYCSSYTSSITLVVFGGGTKLTVLS | 15.2 | 0.107 | 7.08e+06
14 | M0117-A12 (Fab, V domains shown) VH: EVQLLESGGGLVQPGGSLRLSCAASGFTFSNYKMSWVRQAPGKGLEWVSGIYPSGGLTQYADSVKGRFTISRDNSKNTLYLQMNSLRAEDTAVYYCAKVGVWYGMDVWGQGTTVTVSS VL: DIQMTQSPGTLSLSPGDRATLSCRASQSVGSDYLAWYQQKPGQAPRLLIYGASSRATGIPDRFSGSGSGTDFTLTISRLEPEDFAVYYCQQYGSSLYTFGQGTKLEIKR | 14.2 | 0.00345 | 243000
15 | M0117-C04 (Fab, V domains shown) VH: EVQLLESGGGLVQPGGSLRLSCAASGFTFSHYLMFWVRQAPGKGLEWVSSIWPSGGNTKYADSVKGRFTISRDNSKNTLYLQMNSLRAEDTAVYYCARPAYYYAMDVWGQGTTVTVSS VL: DIQMTQSPLSLSASVGDRVTITCRASQTFNNYLNWYQQKPGKAPKLLIYAASTLQSGVPSRFSGSGSGTDFTLTISSLQPEDFATYYCQQANSFPFTFGPGTKVDIKR | 16.6 | 0.00334 | 201000
16 | M0097-E07 (Fab, V domains shown) VH: EVQLLESGGGLVQPGGSLRLSCAASGFTFSWYQMMWVRKAPGKGLEWVSYIRSSGGKTDYADSVKGRFTISRDNSKNTLYLQMNSLRAEDTAVYYCARVGVWYGMDVWGQGTTVTVSS VL: DIQMTQSPSSLSASVGDRVTITCRASQSISSYLSWFQQRPGKAPKLLIYSASNLQSGVPLRFSGSGSGTDFTLTISSLQPEDFATYYCQQIYRTPLTFGGGTKVEIKR | 13.9 | 0.00815 | 585000
17 | M0126-B12 (Fab, V domains shown) VH: EVQLLESGGGLVQPGGSLRLSCAASGFTFSHYVMGWVRQAPGKGLEWVSSIYPSGGKTTYADSVKGRFTISRDNSKNTLYLQMNSLRAEDTAVYYCASPSTGSWSAFDIWGQGTMVTVSS VL: not shown | 15 | 0.00579 | 385000
18 | M0119-B09 (Fab, V domains shown) VH: EVQLLESGGGLVQPGGSLRLSCAASGFTFSWYWMYWVRQAPGKGLEWVSVIGSSGGVTKYADSVKGRFTISRDNSKNTLYLQMNSLRAEDTATYYCARGPYRGYFDYWGQGTLVTVSS VL: DIQMTQSPATLSVSPGEGATLSCRASQSVGNSLAWYQQKPGQAPRVLVYGASTRASGIPARFSGSGSVTEFTLTISSLQSEDFAVYYCQEYNKWPITFGQGTRLERKR | 13.7 | 0.00483 | 352000
19 | M0098-C10 (Fab, V domains shown) VH: EVQLLESGGGLVQPGGSLRLSCAASGFTFSFYSMMWVRQAPGKGLEWVSGISSSGGTTKYADSVKGRFTISRDNSKNTLYLQMNSLRAEDTAVYYCARGGTNYDYVWGSYRSHYYYYGMDVWGQGTTVTVSS VL: DIQMTQSPSSLSASVGDRVTITCRASHNIYTSLNWLQQKPGKAPKLLIYGASTLENGVPSRFSGSASGTDFTLTISSLQPEDSATYYCQQSYTSVTFGQGTKLEIRR | 16.1 | 0.00193 | 120000
20 | M0131-A03 (Fab, V domains shown) VH: EVQLLESGGGLVQPGGSLRLSCAASGFTFSWYTMGWVRQAPGKGLEWVSVIYPSGGMTKYADSVKGRFTISRDNSKNTLYLQMNSLRAEDTAVYYCARTSGGTPWGFWGQGTLVTVSS VL: AQYELTQPASVSGSPGQSITISCTGTNTDVGGYNYVSWYQQYPGKAPKLMIYEVNHRPSGVSNRFSGSKSGNTASLTISGLQAEDEADYYCSSYTYRNTYVFGTGTKVTVLG | 17.4 | 0.046 | 2.65e+06
